assay: soluble fraction after stress (log2 fold change); higher = more stays soluble; pooled small domains, quantitative proteomics; conditions: stress: 75 degC
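Also: 20 min heating vs room temperature control held 20 min.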

Row | Sequence | soluble fraction (log2)
1 | HMNAFEIYPNPASNLIRIDAEFTVAKIFSQTGNLIQTSTTKEIDVYNLANGIYFVKLDDSPSMVKFVIN | -0.795
2 | HMNALTEAESKLLERMNKAGIHAEITTKKAAGILQRSENGARTVLNSLVKKGYLTVETNKAPYIYHLH | -0.359
3 | HMNAMFEKVLAAVMGFIGVSAFAKNADGKSEMTSDQEKRLTDKWGSKFVEEFKNDLLEYEKNGNAAEDAV | -0.944
4 | HMNAPKKPLSAYFLFSQEERLKVKAENPDYSITEVAKELGKRWATLNPDIKTVYEQRYQDARRIYETEMNT | -0.372
5 | HMNAQLTTIPDLDGMNMRAATAMLSSLGLEVKRIGSGTVFAQFPKAGAAMRPGSMVTIRGKAKSL | -0.777
6 | HMNATLSSSYPTSVVTDGEIYKLTFGLNGKYNGQEQITVKPHGDSNIYDSGGLRAYQNTQSNNVVTLN | -0.0686
7 | HMNATQLSNTQKQIRTQLLERLSNNPLTVKQLADRMFVPIDTILKEITALIQEQKIIEDKGGKLQIN | -0.135
8 | HMNAVDLLSPQEQRIFELIGEGMSNRQIADVMYLAEKTVKNYVSNVLMKLGMERRTEAAALAARLDERQK | -0.179
9 | HMNAVITTQKAKQIALAHAGLSEADVNYVKAELENDDGVQVYDIEFYSKNIEYDYDINAVTGEIMSFDHDI | -0.251
10 | HMNAVYPNPFVSEIYIGENNRSVEIYNLNGGLVYGMSQPSSRIDVSGLAAGSYILIKKDSSGHISSHKIMK | -1.63
11 | HMNDAARQTTDILQHVRSSGSISFRDLWRLFMPFMAYRDFDAAVKSLVAAGHIATTENERKELHLIAF | -1.14
12 | HMNDEFYAVVRESYAGYALVKPLDEDVGYDILSVSVKNLKVGDIIRLKVKNIKEIYPPEAEVLEVEVLQ | -0.316
13 | HMNDEQFAIAKNDLLLSLYDGKEVNNSAAEYIIAWESLEKSPSDYISSQLKNTAESIIKISFD | 0.258
14 | HMNDFVTVPDLQGIFYSEAIKKIDKMGLKEGSIQFVNQDKFLPNTVLNQNPKEGTKVSQDSPINLIIS | -0.012
15 | HMNDILETISNQIRDLRVSKKITQQELAERTNLSVPYISQIENGHRNISLETFIKIVDALDIPLSDFFLP | -1.95
16 | HMNDITVNVEDSKLIVTSNNPEKLPLYIMDIQGHILDKSEITAGTYSFPISDRGTYIVRIGENVYKVI | -0.166
17 | HMNDLKVGELAKRGNVTAETVRHYTREGLLSPTRHPDNGYQLFSATDLERLHFIQRARKLGFSVAEIRDIL | -0.915
18 | HMNDLVTWDRYKIELGDTLSEIAQKLVTRVDILKTVNQIQGTRIIAGNSLMVPRTTDTNVLTYL | 0.00348
19 | HMNDPIGDMLTRIRNAQMRGKSTVSTPASKLRAWVLEVLASEGYIRGFERATTDNGQGELVISLD | -0.682
20 | HMNDREAAYEDLPDELVRVGQKVFIKSLETEGVIVQPPNKKGEVRVRSGNISTNVKRSDLGLPIEKP | 0.0745
21 | HMNDRRQDVFELLKSSERPVSAADLAHKFGVTRQVIVADIALLRASDIDIVSTNRGYILKANL | -1.83
22 | HMNDYNLTDREKEVLTFLFQGLEYKEIGMKMSVSPNTIRNHISNIYKKLHVTSKTQAIRVFLNN | -4.09
23 | HMNEAMIMIDLKGKSRDEAVKELDELNLKYRFTGNGIVKDQKPKAGEEINSDTVVEVELSEIK | 0.12
24 | HMNEDYFTIAGYASLRGVNIDTSKANMLGRKATKLSREYGYDIGKVTDTRFGKVNSYHLDILKSIFEF | -0.575
25 | HMNEFSYLSELGSEKGDLIKGLQLVQSREGYVSDDAIRAISKHFSIAEAEVEGVLTFYAQFK | -1.28
26 | HMNEIESFSNTKNPFSLTFKTSKDSSYKVEASSNLKKWTTLSQIKGTGNPITFTESRRILFRKQYYRVTLS | -0.176
27 | HMNEISFYPNPAKESLTVKGLSEITSYSISDINGKLIQYGTTFDRINLEKLTKGFYFLTIGNTISKKLIV | -0.311
28 | HMNEISLKEITIEEDHPWRDKKIKELDLKEHILVAMIRRKDQDIIPNGETKIYKDDILVIYD | 0.00328

Row | Sequence | soluble fraction (log2)
29 | HMNEKFNVYPIPVYNNLNITGLSKPVTYLISSIDGKTIKNGVFQESIDVSDLKSGLYFLQVETKDPVKFIK | -0.991
30 | HMNEKLNEYLNQVKAYLNTSDNKEDIIKELEAVVLEKAEKKYGQITDESISKILSEFGSPAEVAKEYS | 0.218
31 | HMNEKLRNYIDTLFEHAPTTVRAVELKEEMFQNLTDKYNDLIAQGKSEEAAFNIAVASIGDVDSLIAGLS | 0.179
32 | HMNELGSLIKRKREELGLSQEELARILGYKHKSSINKIELGLADVPRTKVPAFAKALGMTPVEFS | -0.12
33 | HMNELPSVIIMKNGRTRPYELQEISKDEEWLNQTIREHGIEPKDIFIAEFWDGRTAFILNDGRIVK | -0.428
34 | HMNERIKSLRKALGLTQQEFADKLGISRGNIGAYEVGKNAPSDAVISLIVRIFNTNENWLRTGEGEM | -0.776
35 | HMNETSRTRALNILGLKATATQEDIKKAYRSLAKEYHPDKLVGVSEGVKKISEEKFREINEAYEYLI | 0.557
36 | HMNEVIIKNWSNAVGRNIKIKTKRGRPIFGRLLAINDQQLTIASKYMRGNATITVAREDVVSMSVS | -3.08
37 | HMNEVRINTAHIEHKYLGEVKVLDIQEMRNARGRDADPLAFLAIRFWSPRGVLVRVKDSRDATPYWLIS | 0.199
38 | HMNEYHRNISDEEFVRDIKETAIKLKKETLTGVEYSQNGKYHASTIIHRFGSWKKALELAELNTK | -0.225
39 | HMNFNYPVIVKNSRINVSGVLSAAKLYTINGQLLQSYKGSGEFTSKTLTKGIYILQVDNARTKVLV | -4.42
40 | HMNFSKEYILVHSYKEIDILDALIVKYEATLVNREFDLFINSYIKINEDYAKLFRDEIISKTSGSMSIKEL | -2.93
41 | HMNFTKHPENPNFVVYRFTDPERANSFRAELIANNISFEEDTEKKKQLIYTLFAIHTKYYNQSMQINIK | -0.843
42 | HMNFTVTDKNAVLYSNDNTKVYESPDINSKLVTTIAKDLPVNVTGITSNGWFRISLEGTYYVPGNGLEQR | -0.139
43 | HMNGADPYEQLGVTRDASDDELKAAHRKLSRENHPDTLMAKGMPPEFIEQANDKMARINAAWDQIRKERGI | 0.323
44 | HMNGAITLRVRPSDEGKRLDVFVVSQLTGYTRSFVAGLIGDRHFLVNGQPKKPGYRIKSSDTISGVIPAPA | -2.1
45 | HMNGARALAGAIAEAIRKQVYRVNERLPAERELASHYDVSRGTLRSALALLEQEGLVTRKVGSGTFVMPP | -0.761
46 | HMNGNLRAQVLELMGRADYEPLNKSELSRKLDLQGSDRSSLRILMDELERDHSVVRLKKGRFALKVV | -0.852
47 | HMNGQFIELKNTTGTIIEARVLSFQNGKVKLQRNDGLIFVASISIFDSESIEVIKQKVAEISESKKS | -1.97
48 | HMNGQITPSRAKEIALGHAGVSEGSANFKKIKLDNKNGRPAYEIEFIANNSRYEFEINASNGSIIKFNK | -0.321
49 | HMNGYGALVRLGRSRGWVTVEEINDHLPESAVRTAENVQEITEALGRLSIKVFETRPDEDDLLIT | -0.458
50 | HMNHGDATTETQAEIMAILSDMKPHPITELNTIKRPYEQIDTALTYLINEEKIYRMDGMIFIG | -1.38
51 | HMNHYTEEYILKRMKDFFTTHAYITRRDIESLFGFRRSYATKWLKHFRESGVLKQSGPVNSAVYLL | -3.18
52 | HMNIAESIRKYRKASGLTQEEMAKRLGVTTPAVSKWENGITNPDIALLAPIARLFHISVDTLLSYR | -1.83
53 | HMNIDKLVGSTGTVVRSVTPDTAGLVRVNDEDWRASAEEILYERDAIVVEGIEGVTLIVSKLS | -0.813
54 | HMNIETHIVPKLLAPIRLQEYGVGIFNNIPTKSALKKALKKQLITVDKTVATTATFIKGGETIELAYQ | -3.07
55 | HMNIGEKIKTLRENNNISIEELAEKINDSIENILKYENNELEPTLDKKLALSIALGVTLSDLS | 0.971

From the domain aggregation screens of Martell et al. (2025)
